Measurements reported in the supplement of paper PMC10724198.
± gives the standard deviation of the averaged measurements.

Tests used:
[1] = tested on: Saccharomyces cerevisiae; experiment: protein stability index of tFT-peptide fusion (C-terminal peptide) (PSI (0-1 scale)); higher = more stable (slower turnover); details: genetic background: wild type; temperature: 30 C
[2] = tested on: Saccharomyces cerevisiae; experiment: as above
Protocol: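 MPS profiling in S. cerevisiae of the tFT-X12 degron library: putative degron peptides plus stable controls, 12 aa, fused to the C-terminus of a sfGFP-mCherry timer. Cells are FACS-sorted into 8 mCherry/sfGFP bins and deep-sequenced. PSI runs from 0 (unstable) to 1 (stable). Backgrounds are wild type, das1Δ and doa10Δ at 30 °C, and wild type, das1Δ, cdc34-1 and cdc53-1 at 37 °C; 2-3 technical replicates each.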

[3] = genetic background: cdc34-1, temperature: 37 C
[4] = genetic background: cdc53-1, temperature: 37 C
[5] = genetic background: das1 deletion, temperature: 30 C
[6] = genetic background: das1 deletion, temperature: 37 C
[7] = genetic background: doa10 deletion, temperature: 30 C
[8] = genetic background: wild type, temperature: 30 C
[9] = genetic background: wild type, temperature: 37 C
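Further: PSI is a weighted mean of sequencing reads over stability bins, variants kept only with over 10 reads, mCherry proximal and sfGFP distal, peptide attached via GGGS linker.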

Sequence	protein stability index [1]	protein stability index [2, 3]	protein stability index [2, 4]	protein stability index [2, 5]	protein stability index [2, 6]	protein stability index [2, 7]	protein stability index [2, 8]	protein stability index [2, 9]
LLVVGPVRLVVH	0.262 ± 0.023	0.214 ± 0.019	0.259 ± 0.0027	0.201 ± 0.034	0.346 ± 0.017	0.168 ± 0.0078	0.18 ± 0.026	0.321 ± 0.012
YAFYLFSRILAA	0.2795 ± 0.00053	0.232 ± 0.0091	0.302 ± 0.075	0.236 ± 0.025	0.3486 ± 0.0015	0.1792 ± 0.0014	0.208 ± 0.016	0.285 ± 0.013
VFVGGVSVLILF	0.516 ± 0.044	0.531 ± 0.051	0.638 ± 0.0089	0.438 ± 0.026	0.602 ± 0.0081	0.413 ± 0.0093	0.434 ± 0.033	0.584 ± 0.0086
RRTTIFDTKEPP	0.462 ± 0.017	0.561 ± 0.02	0.563 ± 0.028	0.523 ± 0.062	0.5752 ± 0.0014	0.532 ± 0.028	0.511 ± 0.019	0.5689 ± 0.0054
SRVGAGVVRGVG	0.488 ± 0.038	0.481 ± 0.031	0.534 ± 0.015	0.498 ± 0.007	0.5403 ± 0.0051	0.512 ± 0.011	0.493 ± 0.012	0.5391 ± 0.0031
SWLAQCVVISLL	0.459 ± 0.011	0.634 ± 0.015	0.654 ± 0.014	0.507 ± 0.029	0.662 ± 0.016	0.352 ± 0.0055	0.364 ± 0.019	0.56 ± 0.061
AERPVLIIIEFG	0.417 ± 0.027	0.416 ± 0.039	0.532 ± 0.064	0.337 ± 0.031	0.5315 ± 0.0052	0.296 ± 0.015	0.339 ± 0.047	0.5248 ± 0.0013
FFVFMAKLRTCN	0.0754 ± 0.063	0.455 ± 0.042	0.536 ± 0.034	0.444 ± 0.025	0.594 ± 0.0073	0.112 ± 0.019	0.127 ± 0.025	0.198 ± 0.029
FCHFSSLVSVSL	0.577 ± 0.18	0.614 ± 0.011	0.6089 ± 0.0042	0.498 ± 0.024	0.6377 ± 0.0016	0.494 ± 0.021	0.496 ± 0.018	0.611 ± 0.025
VAALFPPLRFLN	0.286 ± 0.045	0.554 ± 0.0075	0.711 ± 0.008	0.653 ± 0.017	0.734 ± 0.014	0.0912 ± 0.013	0.122 ± 0.036	0.224 ± 0.031
RSCKSIRGIFVC	0.315 ± 0.027	0.606 ± 0.068	0.7199 ± 0.0018	0.543 ± 0.018	0.719 ± 0.022	0.2 ± 0.0066	0.229 ± 0.02	0.388 ± 0.013
MALAVRVVSCGA	0.3657 ± 0.0028	0.294 ± 0.015	0.3333 ± 0.0024	0.265 ± 0.032	0.4146 ± 0.0036	0.2244 ± 0.00017	0.262 ± 0.016	0.3802 ± 0.0015
VFMSVAPVSVLG	0.29 ± 0.015	0.115 ± 0.047	0.118 ± 0.045	0.198 ± 0.026	0.2589 ± 0.00033	0.154 ± 0.016	0.184 ± 0.023	0.235 ± 0.0013
YHFSLFFPLSLP	0.482 ± 0.0063	0.685 ± 0.022	0.73 ± 0.028	0.607 ± 0.015	0.711 ± 0.0088	0.378 ± 0.0088	0.383 ± 0.017	0.568 ± 0.032
MGDFGFIFVFFL	0.502 ± 0.02	0.544 ± 0.007	0.606 ± 0.035	0.427 ± 0.027	0.6479 ± 0.0044	0.383 ± 0.0084	0.414 ± 0.008	0.59233 ± 0.00044
FSLFYYIHLSVA	0.192 ± 0.019	0.191 ± 0.002	0.211 ± 0.02	0.169 ± 0.034	0.2771 ± 0.002	0.0982 ± 0.0035	0.104 ± 0.028	0.197 ± 0.0021
NVVIGLHLLVYI	0.326 ± 0.049	0.205 ± 0.021	0.313 ± 0.041	0.212 ± 0.047	0.419 ± 0.017	0.189 ± 0.022	0.227 ± 0.014	0.388 ± 0.018
TVVIFLCSYITT	0.186 ± 0.0068	0.183 ± 0.06	0.24 ± 0.11	0.139 ± 0.015	0.298 ± 0.008	0.0829 ± 0.03	0.122 ± 0.04	0.275 ± 0.019
YLVFSLCSYRFL	0.457 ± 0.033	0.596 ± 0.012	0.677 ± 0.022	0.511 ± 0.019	0.653 ± 0.011	0.36 ± 0.011	0.374 ± 0.029	0.549 ± 0.016
GAWLAVCVVREG	0.479 ± 0.022	0.493 ± 0.04	0.568 ± 0.014	0.398 ± 0.023	0.589 ± 0.0069	0.37 ± 0.007	0.405 ± 0.021	0.5526 ± 0.0021

Sequence	protein stability index [1]	protein stability index [2, 3]	protein stability index [2, 4]	protein stability index [2, 5]	protein stability index [2, 6]	protein stability index [2, 7]	protein stability index [2, 8]	protein stability index [2, 9]
WGEAGRPAGRGA	0.688 ± 0.039	0.703 ± 0.032	0.758 ± 0.026	0.631 ± 0.007	0.745 ± 0.018	0.644 ± 0.017	0.6506 ± 0.004	0.73024 ± 1.3e-05
KMIVWKESIKRE	0.535 ± 0.15	0.689 ± 0.065	0.7388 ± 0.001	0.633 ± 0.029	0.723 ± 0.015	0.63 ± 0.014	0.667 ± 0.069	0.693 ± 0.022
LPTLDCPLHRLF	0.559 ± 0.084	0.694 ± 0.026	0.8 ± 0.0093	0.641 ± 0.012	0.7615 ± 0.0076	0.674 ± 0.016	0.654 ± 0.0035	0.733 ± 0.016
FFPFHPHVLRLL	0.282 ± 0.053	0.421 ± 0.044	0.433 ± 0.014	0.477 ± 0.039	0.6373 ± 0.0012	0.215 ± 0.0068	0.203 ± 0.026	0.324 ± 0.014
APASFRVLISAF	0.136 ± 0.0083	0.021 ± 0.0017	0.0368 ± 0.0029	0.118 ± 0.035	0.102 ± 0.013	0.0642 ± 0.012	0.0969 ± 0.034	0.0646 ± 0.018
GPFGVGALVCCM	0.433 ± 0.0072	0.462 ± 0.016	0.4425 ± 0.00085	0.333 ± 0.032	0.503 ± 0.0066	0.304 ± 0.01	0.351 ± 0.017	0.4844 ± 0.00066
PPLPPVCPSPSL	0.485 ± 0.0061	0.665 ± 0.031	0.74 ± 0.027	0.658 ± 0.0035	0.7274 ± 0.0068	0.667 ± 0.023	0.685 ± 0.028	0.714 ± 0.004
VSSSFSVLVLLF	0.421 ± 0.021	0.448 ± 0.017	0.545 ± 0.035	0.375 ± 0.037	0.571 ± 0.013	0.317 ± 0.02	0.339 ± 0.026	0.52 ± 0.035
YRLTIVWFFLAL	0.427 ± 0.055	0.434 ± 0.028	0.519 ± 0.006	0.354 ± 0.026	0.609 ± 0.034	0.3504 ± 0.002	0.349 ± 0.012	0.513 ± 0.011
LLRLCGFPLGVG	0.4497 ± 0.00073	0.466 ± 0.027	0.54 ± 0.0086	0.488 ± 0.014	0.55 ± 0.0049	0.41 ± 0.014	0.4004 ± 0.002	0.51 ± 0.017
FSCWLFMLCVFL	0.393 ± 0.025	0.4339 ± 0.0012	0.459 ± 0.015	0.401 ± 0.013	0.466 ± 0.026	0.37 ± 0.017	0.316 ± 0.023	0.454 ± 0.025
AWGSWTLCVAVH	0.151 ± 0.011	0.0257 ± 0.0088	0.0323 ± 0.0061	0.0888 ± 0.043	0.0713 ± 0.01	0.07331 ± 0.00055	0.089 ± 0.027	0.0602 ± 0.015
ISPCLVRLWYRI	0.175 ± 0.033	0.462 ± 0.053	0.574 ± 0.021	0.544 ± 0.018	0.673 ± 0.019	0.103 ± 0.028	0.102 ± 0.037	0.168 ± 0.026
FLYIPLYCRLSF	0.256 ± 0.027	0.286 ± 0.034	0.3 ± 0.006	0.302 ± 0.031	0.433 ± 0.019	0.209 ± 0.018	0.147 ± 0.028	0.343 ± 0.011
WVFMVILLVFLV	0.3041 ± 0.0026	0.216 ± 0.0073	0.268 ± 0.017	0.257 ± 0.021	0.33 ± 0.038	0.28 ± 0.0053	0.228 ± 0.022	0.315 ± 0.014
RRGLIFFLCCPA	0.466 ± 0.053	0.38308 ± 5.8e-05	0.4335 ± 0.0019	0.336 ± 0.027	0.472 ± 0.013	0.31 ± 0.0072	0.332 ± 0.039	0.432 ± 0.011
FLSRLVGFYFVV	0.361 ± 0.021	0.606 ± 0.018	0.69 ± 0.0093	0.587 ± 0.026	0.733 ± 0.022	0.313 ± 0.006	0.312 ± 0.014	0.463 ± 0.014
RYRVRIVVFGLV	0.14 ± 0.018	0.407 ± 0.018	0.485 ± 0.068	0.365 ± 0.015	0.59 ± 0.032	0.075 ± 0.02	0.088 ± 0.046	0.0807 ± 0.0076
LLPLLFFFLCLP	0.4989 ± 0.0038	0.592 ± 0.058	0.584 ± 0.0088	0.495 ± 0.035	0.5602 ± 0.0049	0.462 ± 0.006	0.452 ± 0.02	0.529 ± 0.014
